Data reported in patent US20200055939A1 (Genentech, published 2020).
Numbering of substitutions follows the chain as printed. Like-named read-outs stand apart in the source and are kept apart here.

B1: 13A9 (antibody, V domains shown)
VH: QVQLQQSGAELVRPGTSVKVSCKASGYAFTNYLIEWVKQRPGQGLEWIGAINPGSGATNYNEKFKDKARLTADKSSNTAYLQFSSLTSDDSAVYFCARFLGNYFDNWGQGATLTVSS
VL: DIQMTQSPASLSASVGETVTITCRASGNIHSYLAWYQQKQGKSPQLLVYYAETLADGVPSRFSGRGSGTQYSLKINSLQPEDFGSYFCQQFWTTPYTFGGGTKVEIK
notes: Mouse variable domains; constant regions differ by assay
B2: 6E12.5 (antibody, V domains shown)
VH: EVQLVESGGGLVKPGGSLKLSCAASGFTFSDYYMYWVRQTPEKRLEWVATISDGITYTYYSDSVRGRFTISRDNAENTLYLQMSSLKSEDTAMYYCSKGGGSTARGALDFWGQGTSVTVSS
VL: DIQMNQSPSSLSASLGDTITITCHASQNIHVWLSWYQQKPGNIPKLLIYGASHLHTGVPSRFSGRGSGTGFTLTISSLQPEDIATYYCLQGQSYPLTFGSGTKVEIK
notes: Mouse hybridoma antibody; constant regions differ by assay
B3: 13A9 Fab (Fab, V domains shown)
VH: B1 VH
VL: B1 VL
notes: Expressed in E. coli as chimera of murine variable and human constant domains; not shown: human IgG1 CH1 constant domain; human kappa CL constant domain
B4: 6E1.1.12 Fab (Fab, V domains shown)
VH: QGQMQQSGAELVKPGASVKLSCKTSGFTFSDNYISWLKQKPGQSLEWIAWIYAGTGGSSYNQKFRDKAQLTVDTSSRTAYMQLSSLTTEDSAIYYCARHDYYGTSGAWFAYWGRGTLVTVSA
VL: DVLMTQTPLSLPVSLGDQASISCRSSQHIVHSNENTYLEWYLQKPGQSPKLLIYKVSNRFSGVPDRFSGSGSGTDFTLKISRVEAEDLGVYYCFQGSHVPWTFGGGTKVEIK
notes: Expressed in E. coli; the fraction with glutamine (not pyroglutamate) at the heavy chain N-terminus was crystallised; also called 6E1 Fab; not shown: human IgG1 CH1 constant domain; human kappa CL constant domain

Tests used:
[1] = molecular target: T1, MICA*008 on MEL-JUSO cells (human, UniProt Q29983 24-317); experiment: cell-based or functional assay
T1 chain: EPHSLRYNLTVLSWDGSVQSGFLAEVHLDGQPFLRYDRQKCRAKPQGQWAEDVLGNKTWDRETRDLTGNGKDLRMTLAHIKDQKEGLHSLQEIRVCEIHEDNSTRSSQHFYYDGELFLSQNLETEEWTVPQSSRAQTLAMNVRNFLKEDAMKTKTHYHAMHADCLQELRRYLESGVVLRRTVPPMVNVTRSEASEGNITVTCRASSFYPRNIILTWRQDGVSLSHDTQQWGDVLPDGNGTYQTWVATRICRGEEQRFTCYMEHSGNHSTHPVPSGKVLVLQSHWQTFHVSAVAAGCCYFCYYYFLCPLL

[2] = molecular target: T2, MICA*004 on HCC1534 cells (human, UniProt Q29983 24-383); experiment: cell-based or functional assay
[3] = molecular target: T3, MICB*005 on HCC1534 cells (human, UniProt Q29980 23-383); experiment: cell-based or functional assay
T3 sequence (looked up): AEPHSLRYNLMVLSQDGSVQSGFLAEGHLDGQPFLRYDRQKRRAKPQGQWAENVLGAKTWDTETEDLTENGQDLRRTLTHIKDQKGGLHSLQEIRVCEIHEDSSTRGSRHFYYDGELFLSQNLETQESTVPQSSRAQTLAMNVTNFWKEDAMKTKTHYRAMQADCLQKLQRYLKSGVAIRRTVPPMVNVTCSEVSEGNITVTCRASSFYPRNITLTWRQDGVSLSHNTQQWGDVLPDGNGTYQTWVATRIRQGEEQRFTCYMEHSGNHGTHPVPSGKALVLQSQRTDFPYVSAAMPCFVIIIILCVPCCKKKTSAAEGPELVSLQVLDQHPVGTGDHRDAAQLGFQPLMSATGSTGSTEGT

[4] = molecular target: T4, MILL1-MICA chimera.murine IgG2a Fc fusion (mouse MILL1 with grafted human MICA*008 …); experiment: ELISA, coated chimera
T4 construct: MICA*008 residues around NGTYQT on the 'back' and in the beta2 microglobulin interface grafted onto murine MILL1; also called MILL1-MICA*008 chimera

[5] = molecular target: T5, MICA.008.a3.R202-S297.R202N mIgG2a.Glyco11 (human; mouse, UniProt Q29983 203-297, engineered N-linked glycosylation site R202N); experiment: ELISA, coated variant;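 note: ELISA with plates coated at 2 ug/ml with MICA*008 alpha 3 glycosylation variants as murine IgG2a Fc fusions, antibody binding detected by HRP anti-human IgG Fc and TMB absorbance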
T5 construct: not shown: murine IgG2a Fc
T5 chain: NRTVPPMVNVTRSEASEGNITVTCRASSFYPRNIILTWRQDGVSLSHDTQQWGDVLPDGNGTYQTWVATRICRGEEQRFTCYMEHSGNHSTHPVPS

[6] = molecular target: T6, MICA.008.a3.T204-S297.E215N.mIgG2a.Glyco12 (human; mouse, UniProt Q29983 204-297, engineered N-linked glycosylation site E215N); experiment: ELISA, coated variant;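 note: ELISA with plates coated at 2 ug/ml with MICA*008 alpha 3 glycosylation variants as murine IgG2a Fc fusions, antibody binding detected by HRP anti-human IgG Fc and TMB absorbance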
T6 construct: not shown: murine IgG2a Fc
T6 chain: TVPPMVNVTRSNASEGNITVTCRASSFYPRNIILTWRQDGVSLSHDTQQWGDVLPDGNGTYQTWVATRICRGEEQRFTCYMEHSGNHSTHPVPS

[7] = molecular target: T7, MICA.008.a3.T204-S297.I236T.mIgG2a.Glyco13 (human; mouse, UniProt Q29983 204-297, engineered N-linked glycosylation site created by I236T); experiment: ELISA, coated variant;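 note: ELISA with plates coated at 2 ug/ml with MICA*008 alpha 3 glycosylation variants as murine IgG2a Fc fusions, antibody binding detected by HRP anti-human IgG Fc and TMB absorbance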
T7 construct: not shown: murine IgG2a Fc
T7 chain: T6 chain with N12E, I33T

[8] = molecular target: T8, MICA.008.a3.T204-S297.H248N.mIgG2a.Glyco15 (human; mouse, UniProt Q29983 204-297, engineered N-linked glycosylation site H248N); experiment: ELISA, coated variant;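 note: ELISA with plates coated at 2 ug/ml with MICA*008 alpha 3 glycosylation variants as murine IgG2a Fc fusions, antibody binding detected by HRP anti-human IgG Fc and TMB absorbance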
T8 construct: not shown: murine IgG2a Fc
T8 chain: T6 chain with N12E, H45N

[9] = molecular target: T9, MICA.008.a3.T204-S297.C-terminal insert of N298.G299.S300.mIgG2a.Glyco17 (human; mouse, UniProt Q29983 204-297, engineered N-linked glycosylation site at inserted N298); experiment: ELISA, coated variant
T9 construct: not shown: murine IgG2a Fc
T9 chain: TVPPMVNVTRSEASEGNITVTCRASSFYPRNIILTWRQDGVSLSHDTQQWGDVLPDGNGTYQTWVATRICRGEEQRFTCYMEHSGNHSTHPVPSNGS

[10] = molecular target: T10, MICA008.His (human MICA*008 alpha 3 domain, His tagged) (human); experiment: SPR, antibody captured;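 note: SPR with antibody held by surface-bound anti-Fc while His-tagged alpha three domains flow over, Kd derived by fitting a one-to-one binding model to sensograms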
T10 construct: Also used for FPOP (expressed in CHO); also called huMICA*008 alpha 3-his; MICA*008 a3
T10 chain: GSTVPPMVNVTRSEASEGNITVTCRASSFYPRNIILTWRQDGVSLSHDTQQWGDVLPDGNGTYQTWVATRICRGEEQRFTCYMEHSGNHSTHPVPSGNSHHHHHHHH

[11] = molecular target: T11, MICA002.His (human MICA*002 alpha 3 domain, His tagged) (human); experiment: SPR, antibody captured;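 note: SPR with antibody held by surface-bound anti-Fc while His-tagged alpha three domains flow over, Kd derived by fitting a one-to-one binding model to sensograms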
T11 construct: also called huMICA*002 alpha 3-his
T11 chain: T10 chain with S28G, R32W, I35T, T37S, R73Q

[12] = molecular target: T12, MICA004.His (human MICA*004 alpha 3 domain, His tagged) (human); experiment: SPR, antibody captured;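 note: SPR with antibody held by surface-bound anti-Fc while His-tagged alpha three domains flow over, Kd derived by fitting a one-to-one binding model to sensograms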
T12 construct: also called huMICA*004 alpha 3-his
T12 chain: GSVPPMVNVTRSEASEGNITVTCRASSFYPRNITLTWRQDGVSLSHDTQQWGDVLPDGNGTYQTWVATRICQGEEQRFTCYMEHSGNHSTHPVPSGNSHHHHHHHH

[13] = molecular target: T13, MICB005.His (human MICB*005 alpha 3 domain, His tagged) (human); experiment: SPR, antibody captured;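 note: SPR with antibody held by surface-bound anti-Fc while His-tagged alpha three domains flow over, Kd derived by fitting a one-to-one binding model to sensograms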
T13 construct: also called huMICB*005 alpha 3-his
T13 chain: T10 chain with R12C, A15V, I35T, D48N, C72R, R73Q, S90G

[14] = molecular target: T1, MICA*008 on MEL-JUSO cells; experiment: cell-based or functional assay
[15] = molecular target: T2, MICA*004 on HCC1534 cells; experiment: cell-based or functional assay; remark: listed apart in the source
[16] = molecular target: T3, MICB*005 on HCC1534 cells; experiment: cell-based or functional assay; remark: listed apart in the source
[17] = molecular target: T1, MICA*008 on MEL-JUSO cells; experiment: cell-based or functional assay
[18] = molecular target: T2, MICA*004 on HCC1534 cells; experiment: cell-based or functional assay; remark: listed apart in the source
[19] = molecular target: T3, MICB*005 on HCC1534 cells; experiment: cell-based or functional assay; remark: listed apart in the source
[20] = molecular target: MICA*002 on cells (PANC-1; B16-MICA002) (human, UniProt Q29983 24-383); experiment: cell-based or functional assay
[21] = molecular target: T13, MICB005.His (human MICB*005 alpha 3 …); experiment: ELISA, coated antigen
[22] = molecular target: T14, MICA.008.a3.T204-S297.G243N.mIgG2a.Glyco14 (human; mouse, UniProt Q29983 204-297, engineered N-linked glycosylation site G243N); experiment: ELISA, coated variant
T14 construct: not shown: murine IgG2a Fc
T14 chain: T6 chain with N12E, G40N

[23] = molecular target: T15, MICA.008.a3.T204-S297.R279N.mIgG2a.Glyco16 (human; mouse, UniProt Q29983 204-297, engineered N-linked glycosylation site R279N); experiment: ELISA, coated variant
T15 construct: not shown: murine IgG2a Fc
T15 chain: T6 chain with N12E, R76N

[24] = molecular target: T16, human MICA*008 alpha 3 domain, untagged (crystallography) (human, UniProt Q29983 204-297); experiment: complex purified by size exclusion, X-ray structure
T16 construct: Made in T. ni cells with EndoH and kifunensine; N-terminal His6 tag removed with thrombin; also called MICA*008 α3 domain
T16 chain: T6 chain with N12E

[25] = molecular target: T17, human MICA*008 C273S alpha 3 domain, untagged (crystallography) (human, UniProt Q29983 204-297); experiment: as above
T17 construct: C273S removes the unpaired cysteine; made as the wild-type alpha 3 domain; also called MICA*008 C273S α3 domain
T17 chain: T6 chain with N12E, C70S

Binder | binding result [5] | binding result [6] | binding result [7] | binding result [9] | Kd [10] | Kd [11] | Kd [12] | % max inhibition of shedding [14] | EC50 of shedding inhibition [14] | % max inhibition of shedding [15] | EC50 of shedding inhibition [15] | other results
B1 | binds | binds | binds | binds | 0.94 nM | 0.5 nM | 1.55 nM | 47% | 0.489 µg/mL | 66% | 0.166 µg/mL | maximum inhibition of shedding [1]: ~40%; maximum inhibition of shedding [2]: ~60%; maximum inhibition of shedding [3]: 75%; binding result [4]: binds; binding result [8]: binds; Kd [13]: 0.97 nM; % max inhibition of shedding [16]: 79%; EC50 of shedding inhibition [16]: 0.053 µg/mL; EC50 of shedding inhibition [17]: 0.794 µg/mL; Max % Inhibition of shedding [17]: 50%; EC50 of shedding inhibition [18]: 0.599 µg/mL; Max % Inhibition of shedding [18]: 56%; EC50 of shedding inhibition [19]: 0.0349 µg/mL; Max % Inhibition of shedding [19]: 76%; EC50 of shedding inhibition [20]: 0.418 µg/mL; Max % Inhibition of shedding [20]: 66%
B2 | binds | binds | binds | binds | 15.1 nM | 4.5 nM | 3 nM | 28% | 0.074 µg/mL | 37% | 0.329 µg/mL | binding result [21]: binds; binding result [22]: binds; binding result [23]: binds
B3 | – | – | – | – | – | – | – | – | – | – | – | binding result [24]: binds
B4 | – | – | – | – | – | – | – | – | – | – | – | binding result [25]: binds
